Reference: IntAct's records for PubMed 29892012

B1: Late cornified envelope protein 1B (Homo sapiens), Q5T7P3 (parent)
chain: MSCQQNQQQCQPPPKCIPKCPPKCLTPRCPPKCPPKCPPVSSCCSVSSGGCCGSSSGGSCGSSSGGCCSSGGGGCCLSHHRRRRSHCHRPQSSGCCSQPSGGSSCCGGGSGQHSGGCC
partner: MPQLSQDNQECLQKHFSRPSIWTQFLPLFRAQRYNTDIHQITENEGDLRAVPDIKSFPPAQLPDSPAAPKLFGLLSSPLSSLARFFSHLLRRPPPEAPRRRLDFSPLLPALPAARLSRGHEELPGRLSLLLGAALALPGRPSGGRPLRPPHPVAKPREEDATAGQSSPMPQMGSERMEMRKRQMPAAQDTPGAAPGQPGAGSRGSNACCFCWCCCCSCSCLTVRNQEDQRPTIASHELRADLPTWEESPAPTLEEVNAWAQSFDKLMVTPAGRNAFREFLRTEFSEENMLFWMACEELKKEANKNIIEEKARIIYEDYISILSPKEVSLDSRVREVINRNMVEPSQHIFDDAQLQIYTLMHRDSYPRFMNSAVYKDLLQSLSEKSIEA
B2: Abl interactor 2 (Homo sapiens), Q9NYB9 (parent)
chain: MAELQMLLEEEIPGGRRALFDSYTNLERVADYCENNYIQSADKQRALEETKAYTTQSLASVAYLINTLANNVLQMLDIQASQLRRMESSINHISQTVDIHKEKVARREIGILTTNKNTSRTHKIIAPANLERPVRYIRKPIDYTILDDIGHGVKWLLRFKVSTQNMKMGGLPRTTPPTQKPPSPPMSGKGTLGRHSPYRTLEPVRPPVVPNDYVPSPTRNMAPSQQSPVRTASVNQRNRTYSSSGSSGGSHPSSRSSSRENSGSGSVGVPIAVPTPSPPSVFPAPAGSAGTPPLPATSASAPAPLVPATVPSSTAPNAAAGGAPNLADGFTSPTPPVVSSTPPTGHPVQFYSMNRPASRHTPPTIGGSLPYRRPPSITSQTSLQNQMNGGPFYSQNPVSDTPPPPPPVEEPVFDESPPPPPPPEDYEEEEAAVVEYSDPYAEEDPPWAPRSYLEKVVAIYDYTKDKEDELSFQEGAIIYVIKKNDDGWYEGVMNGVTGLFPGNYVESIMHYSE
partner: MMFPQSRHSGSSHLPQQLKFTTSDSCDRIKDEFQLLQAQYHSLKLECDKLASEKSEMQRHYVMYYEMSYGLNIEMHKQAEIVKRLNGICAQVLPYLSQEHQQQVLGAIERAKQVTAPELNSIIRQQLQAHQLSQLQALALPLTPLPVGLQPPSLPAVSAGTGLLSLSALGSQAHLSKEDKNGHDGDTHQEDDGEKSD
B3: Abl interactor 2 (Homo sapiens), Q9NYB9 (parent)
chain: B2 chain
partner: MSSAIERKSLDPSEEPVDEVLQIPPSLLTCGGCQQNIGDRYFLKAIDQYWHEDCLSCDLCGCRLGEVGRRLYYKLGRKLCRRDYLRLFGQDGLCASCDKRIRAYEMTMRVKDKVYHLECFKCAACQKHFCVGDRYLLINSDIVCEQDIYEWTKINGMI
B4: Abl interactor 2 (Homo sapiens), Q9NYB9 (parent)
chain: B2 chain
partner: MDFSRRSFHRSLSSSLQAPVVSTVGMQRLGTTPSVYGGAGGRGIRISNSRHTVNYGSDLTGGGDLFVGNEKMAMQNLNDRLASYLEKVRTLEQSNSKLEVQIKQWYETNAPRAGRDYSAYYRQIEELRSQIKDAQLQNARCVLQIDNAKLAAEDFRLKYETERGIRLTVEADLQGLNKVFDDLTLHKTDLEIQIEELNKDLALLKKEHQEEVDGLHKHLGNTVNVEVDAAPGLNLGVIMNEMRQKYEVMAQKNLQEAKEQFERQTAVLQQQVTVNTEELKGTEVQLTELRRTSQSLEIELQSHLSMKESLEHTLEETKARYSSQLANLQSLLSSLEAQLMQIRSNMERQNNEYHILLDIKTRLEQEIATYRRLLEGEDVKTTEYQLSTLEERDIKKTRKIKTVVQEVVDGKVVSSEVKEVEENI
B5: Consortin (Homo sapiens), Q6PJW8 (parent)
chain: MDDSDTPTYYLQIEPQDGCHPGDSVERSVTCLPSASDENENQLDGDGHEHLTSSDSAMGKPQVSEQDSLNNNESCTLSCEVAAGENLQNTLCEASRDEQAFLGKDKKIPGKRSPRSKKGTAKKIPPGLFSGDIAPLMQEKVLSAVTYAVDDEEAAEVNANEQPEAPKLVLQSLFSLIRGEVEQLDSRALPLCLHQIAESYFQEEDYEKAMKFIQLERLYHEQLLANLSAIQEQWETKWKTVQPHTVTALRNSEKGFNGEDFERLTKICATHQDPLLSKHKIAAVEKSQERKCSTQLLVSEDPKEGGATTKESESKTCLGTESSKESQHTVEPLGSSPCCHQMDVQTDSPSLSVTAGKDHMEELLCSAEATLALHTQSSETAGSPSGPDSSEDACEDDSRLQLAQTEACQDVARIEGIAEDPKVFLSSKSKTEPLISPGCDRIPPALISEGKYSQAQRKELRLPLRDASEALPTDQLENNELNELQQPDLTDSDGKSPQAQADSDGSENVLCGNNQISDLGILLPEVCMAPEEKGDKDDQLNKETEDYLNSLLEGCLKDTEDSLSYEDNQDDDSDLLQDLSPEEASYSLQENLPSDESCLSLDDLAKRIEIAEVVPTEGLVSILKKRNDTVGDHPAQMQHKPSKRRVRFQEIDDSLDQDEVGGGSCILLVLLCIATVFLSVGGTALYCTFGDMESPVCTDFADNMDFYYTKLLQGVAELKHWIYLS
B6: Abl interactor 2 (Homo sapiens), Q9NYB9 (parent)
chain: B2 chain
partner: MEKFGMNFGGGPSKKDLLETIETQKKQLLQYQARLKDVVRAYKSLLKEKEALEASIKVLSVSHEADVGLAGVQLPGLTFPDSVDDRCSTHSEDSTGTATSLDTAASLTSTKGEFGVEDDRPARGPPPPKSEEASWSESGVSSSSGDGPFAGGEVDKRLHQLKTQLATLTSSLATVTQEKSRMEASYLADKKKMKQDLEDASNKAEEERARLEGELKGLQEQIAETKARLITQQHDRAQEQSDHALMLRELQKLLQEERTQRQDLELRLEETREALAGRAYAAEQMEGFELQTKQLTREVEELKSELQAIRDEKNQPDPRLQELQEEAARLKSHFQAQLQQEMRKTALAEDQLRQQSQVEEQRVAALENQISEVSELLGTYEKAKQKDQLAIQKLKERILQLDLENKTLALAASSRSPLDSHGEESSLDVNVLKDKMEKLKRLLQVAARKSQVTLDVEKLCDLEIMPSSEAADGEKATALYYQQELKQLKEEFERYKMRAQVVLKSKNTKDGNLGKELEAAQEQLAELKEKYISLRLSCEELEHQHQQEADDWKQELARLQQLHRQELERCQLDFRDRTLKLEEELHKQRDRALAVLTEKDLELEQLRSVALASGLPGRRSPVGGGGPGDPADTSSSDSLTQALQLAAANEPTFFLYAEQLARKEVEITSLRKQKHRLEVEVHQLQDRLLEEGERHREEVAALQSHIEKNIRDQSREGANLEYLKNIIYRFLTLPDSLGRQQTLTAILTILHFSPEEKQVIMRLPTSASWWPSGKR

Variants of: B1
Conditions: with rgs20_human RGS20, O76081

effect of a mutation on the interaction	Variant
with no effect	C16Y

Variants of: B2
Conditions: with tle5_human TLE5, Q08117

effect of a mutation on the interaction	Variant
with no effect	R373C

Variants of: B2
Conditions: with tle5_human TLE5, Q08117
Remark: another data set of the same source

effect of a mutation on the interaction	Variant
with no effect	E202K

Variants of: B3
Conditions: with rbtn2_human LMO2, P25791

effect of a mutation on the interaction	Variant
with no effect	E202K

Variants of: B3
Conditions: with rbtn2_human LMO2, P25791
Remark: another data set of the same source

effect of a mutation on the interaction	Variant
with no effect	R373C

Variants of: B4
Conditions: with KRT20, P35900

effect of a mutation on the interaction	Variant
with no effect	R373C

Variants of: B4
Conditions: with KRT20, P35900
Remark: another data set of the same source

effect of a mutation on the interaction	Variant
with no effect	E202K

Variants of: B5
Conditions: with rop1a_human ROPN1, Q9HAT0
Chain of rop1a_human ROPN1, Q9HAT0 (Q9HAT0 whole entry): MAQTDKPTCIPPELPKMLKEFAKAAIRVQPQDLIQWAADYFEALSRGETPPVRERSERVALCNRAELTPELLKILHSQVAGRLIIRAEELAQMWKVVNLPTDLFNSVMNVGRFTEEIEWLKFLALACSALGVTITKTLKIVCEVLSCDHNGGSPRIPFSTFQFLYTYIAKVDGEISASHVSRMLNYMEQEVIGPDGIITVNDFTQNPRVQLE

effect of a mutation on the interaction	Variant
disrupting interaction strength	V25M

Variants of: B6
Conditions: with gcc1_human GCC1, Q96CN9

effect of a mutation on the interaction	Variant
with no effect	E202K
